Test results as given in article PMC5645412, “AUNIP/C1orf135 directs DNA double-strand breaks towards the homologous recombination repair pathway” (Nature Communications, 2017).
One block for each binder: values may come before it.

Experiments:
MBP-tagged CtIP = target: T1, MBP-tagged CtIP (UniProt Q99708 1-897); experiment: pull-down; GST or GST-AUNIP (wild type or mutant) on glutathione-Sepharose incubated with MBP-CtIP in NETN buffer, 2 h at 4 °C; five washes; CtIP detected by monoclonal anti-CtIP antibody; conditions: both partners purified
T1 construct: CtIP; also called MBP-CtIP; source: E. coli BL21, purified (Amylose resin, eluted with maltose)

MBP-AUNIP = target: T2, MBP-AUNIP (UniProt Q9H7T9 1-357); experiment: EMSA; 10 mM MgCl2; 20 nM biotin-DNA, 0-200 nM protein, 1x LightShift binding buffer with 10 mM MgCl2, 2.5% glycerol, 0.05% NP-40, 20 min, room temperature; 10% native PAGE; pH and salt not given; conditions: protein: recombinant, label: 5'-biotin on oligo 1
T2 sequence: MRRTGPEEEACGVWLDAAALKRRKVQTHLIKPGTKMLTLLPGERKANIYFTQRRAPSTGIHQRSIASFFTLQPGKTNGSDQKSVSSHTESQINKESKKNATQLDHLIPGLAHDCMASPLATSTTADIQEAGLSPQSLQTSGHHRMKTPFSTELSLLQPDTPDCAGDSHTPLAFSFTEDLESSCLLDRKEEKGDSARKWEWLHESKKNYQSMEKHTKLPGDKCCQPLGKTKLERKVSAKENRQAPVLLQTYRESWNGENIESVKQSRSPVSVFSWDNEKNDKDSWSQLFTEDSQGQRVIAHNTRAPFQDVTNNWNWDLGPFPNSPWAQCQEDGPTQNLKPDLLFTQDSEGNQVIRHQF

MBP-AUNIP Δ25-70 = target: T3, MBP-AUNIP Δ25-70 (UniProt Q9H7T9 1-357, del25-70); experiment: EMSA; 10 mM MgCl2; up to 200 nM protein; 20 nM biotin-DNA, 0-200 nM protein, 1x LightShift binding buffer with 10 mM MgCl2, 2.5% glycerol, 0.05% NP-40, 20 min, room temperature; 10% native PAGE; pH and salt not given; conditions: protein: recombinant; label: 5'-biotin on oligo 1; fork; 31 bp duplex, two 28 nt arms (3' arm of oligo 1, 5' arm of oligo 2)
T3 sequence: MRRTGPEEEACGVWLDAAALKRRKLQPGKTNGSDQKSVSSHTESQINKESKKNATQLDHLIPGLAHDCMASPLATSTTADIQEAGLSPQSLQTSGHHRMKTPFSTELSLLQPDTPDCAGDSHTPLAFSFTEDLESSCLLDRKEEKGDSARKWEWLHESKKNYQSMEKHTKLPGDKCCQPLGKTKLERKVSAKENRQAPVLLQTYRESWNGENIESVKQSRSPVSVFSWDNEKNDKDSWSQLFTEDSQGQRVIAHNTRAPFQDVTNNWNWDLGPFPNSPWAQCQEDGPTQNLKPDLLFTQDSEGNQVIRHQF

T1 sequence (Q99708 whole entry): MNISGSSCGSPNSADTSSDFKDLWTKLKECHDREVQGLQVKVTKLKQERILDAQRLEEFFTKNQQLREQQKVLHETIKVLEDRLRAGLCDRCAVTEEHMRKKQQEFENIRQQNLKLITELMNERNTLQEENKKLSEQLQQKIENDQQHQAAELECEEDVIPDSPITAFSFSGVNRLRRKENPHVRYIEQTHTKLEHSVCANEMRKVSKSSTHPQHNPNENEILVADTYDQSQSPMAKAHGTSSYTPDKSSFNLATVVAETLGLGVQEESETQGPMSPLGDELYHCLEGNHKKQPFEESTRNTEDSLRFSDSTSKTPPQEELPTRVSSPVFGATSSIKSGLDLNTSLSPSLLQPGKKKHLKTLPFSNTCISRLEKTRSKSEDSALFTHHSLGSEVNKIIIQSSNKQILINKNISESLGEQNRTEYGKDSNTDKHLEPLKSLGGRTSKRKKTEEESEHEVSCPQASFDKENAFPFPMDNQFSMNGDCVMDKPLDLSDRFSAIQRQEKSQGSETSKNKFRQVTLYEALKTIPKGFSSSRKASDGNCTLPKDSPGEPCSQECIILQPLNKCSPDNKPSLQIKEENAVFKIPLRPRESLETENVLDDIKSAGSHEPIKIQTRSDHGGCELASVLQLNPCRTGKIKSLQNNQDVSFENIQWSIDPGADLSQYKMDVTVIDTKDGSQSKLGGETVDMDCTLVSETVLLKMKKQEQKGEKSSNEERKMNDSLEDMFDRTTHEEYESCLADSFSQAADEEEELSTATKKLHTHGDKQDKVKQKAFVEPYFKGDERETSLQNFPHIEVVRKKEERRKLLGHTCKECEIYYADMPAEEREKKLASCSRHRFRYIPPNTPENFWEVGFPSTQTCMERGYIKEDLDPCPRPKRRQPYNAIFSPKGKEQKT

binding result (MBP-tagged CtIP): binds
B1: GST-tagged AUNIP (wild-type) (natural protein, human, UniProt Q9H7T9 1-357, looked up)
chain: MRRTGPEEEACGVWLDAAALKRRKVQTHLIKPGTKMLTLLPGERKANIYFTQRRAPSTGIHQRSIASFFTLQPGKTNGSDQKSVSSHTESQINKESKKNATQLDHLIPGLAHDCMASPLATSTTADIQEAGLSPQSLQTSGHHRMKTPFSTELSLLQPDTPDCAGDSHTPLAFSFTEDLESSCLLDRKEEKGDSARKWEWLHESKKNYQSMEKHTKLPGDKCCQPLGKTKLERKVSAKENRQAPVLLQTYRESWNGENIESVKQSRSPVSVFSWDNEKNDKDSWSQLFTEDSQGQRVIAHNTRAPFQDVTNNWNWDLGPFPNSPWAQCQEDGPTQNLKPDLLFTQDSEGNQVIRHQF
notes: AUNIP/C1orf135, human; pCold vectors may add further N-terminal vector residues; also called GST-AUNIP; recombinant GST-AUNIP; source: E. coli BL21, purified on glutathione-Sepharose resin (kept on the beads)

binding result (MBP-tagged CtIP): binds
B2: GST-tagged AUNIP C-terminal region (281-357) (domain or fragment, human, UniProt Q9H7T9 281-357, looked up)
chain: KDSWSQLFTEDSQGQRVIAHNTRAPFQDVTNNWNWDLGPFPNSPWAQCQEDGPTQNLKPDLLFTQDSEGNQVIRHQF
notes: source: E. coli BL21, purified on glutathione-Sepharose resin (kept on the beads)

B3: splayed arm (dsDNA)
DNA 1: GACGCTGCCGAATTCTACCAGTGCCTTGCTAGGACATCTTTGCCCACCTGCAGGTTCAC
DNA 2: ATAGTCGGATCCTCTAGACAGCTCCATGTAGCAAGGCACTGGTAGAATTCGGCAGCGTC
binding result (MBP-AUNIP; fork, 31 bp duplex, two 28 nt arms (3' arm of oligo 1, 5' arm of oligo 2)): binds | binding result (MBP-AUNIP Δ25-70): no binding

B4: 5'-flap (dsDNA)
DNA 1: GACGCTGCCGAATTCTACCAGTGCCTTGCTAGGACATCTTTGCCCACCTGCAGGTTCAC
DNA 2: ATAGTCGGATCCTCTAGACAGCTCCATGTAGCAAGGCACTGGTAGAATTCGGCAGCGTC
DNA 3: GTGAACCTGCAGGTGGGCAAAGATGTCC
binding result (MBP-AUNIP; 1:2 31 bp, 1:3 28 bp, 28 nt 5' flap of strand 2): binds

B5: 3'-flap (dsDNA)
DNA 1: GACGCTGCCGAATTCTACCAGTGCCTTGCTAGGACATCTTTGCCCACCTGCAGGTTCAC
DNA 2: ATAGTCGGATCCTCTAGACAGCTCCATGTAGCAAGGCACTGGTAGAATTCGGCAGCGTC
DNA 3: CATGGAGCTGTCTAGAGGATCCGACTAT
binding result (MBP-AUNIP; 1:2 31 bp, 2:3 28 bp, 28 nt 3' flap of strand 1): binds
